In publication PMC6091153:
“And” between values parts separate entries of the source, which are not always exact repeats. Equal values may be shown once.

Target: Saccharomyces cerevisiae glutaredoxin Grx6 (recombinant, without the signal peptide) (S. cerevisiae) (UniProt Q12438)
Assay: SEC; gel filtration of freshly purified recombinant protein on a Superdex 75 column, elution followed at 280 nm and 430 nm; the dimer peak is brown (Fe-S centre); FeSO4·7H2O and (NH4)2Fe(SO4)2·6H2O added in one run (more dimer and tetramer)

stoichiometry N: 4 and 2
Substance: Saccharomyces cerevisiae glutaredoxin Grx6 (recombinant, without the signal peptide) (from UniProt Q12438 30-231) (natural protein)
